Results as given in the supplement of paper PMC9170038.

Columns and labels:
MS2 coat protein [1] = assay: apparent KD of MS2 coat protein, switch ON state; designed switch direction (-1 OFF switch, 1 ON switch): 1; higher = weaker reporter binding; conditions: FMN input: 0 or 200 uM; Eterna round: R93 (includes R88 designs)
In short: (§1)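 SNAP-549-labelled MS2 coat protein was titrated onto designed RNA switches that had been transcribed on-chip from Illumina sequencing clusters. Amounts doubled from 0.7 or 1.5 nM to 3 µM in 100 mM Tris-HCl pH 7.5, 80 mM KCl, 4 mM MgCl2, with constant ligand or without. Apparent KD is the median per design of normalised cluster binding-curve fits.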

MS2 coat protein [2] = assay: apparent KD of MS2 coat protein, switch OFF state (with FMN for OFF switches, without FMN for ON switches); designed switch direction (-1 OFF switch, 1 ON switch): 1; higher = weaker reporter binding; conditions: FMN input: 0 or 200 uM; Eterna round: R93 (includes R88 designs)
In short: as §1

Sequence | apparent KD of MS2 coat protein (MS2 coat protein [1]) [nM] | apparent KD of MS2 coat protein (MS2 coat protein [2]) [nM]
AAGAAACAUGAGGAUCACCCAUGUCAAGAGAGACAAGGAUAUCUGAAUUAAUUAAAUUAAGGAGAAGGUGUGAAAA [71%, Same state of confusion2, 1] | 201 | 253
AAGAAACAUGAGGAUCACCCAUGUGAUAAUAUGGGAGGAUAUACGAAGACGAAAGACGAAGUAGAAGGCCUAAGAA [Garnet 46] | 45.3 | 138
AAGAAAGAAACAUAGGAUAUCAAGGAUAUAACAUGAGGAUCACCCAUGUAAAUACGAAAGUAUAAUGAGAAGGAUGGAUGAUCUUC [Meechl MS2 SS2] | 28.9 | 44.9
AAGAAUUAAACGCAGGAUAUGUACCCACGUACAUGAGGAUCACCCAUGUGCCUAUAAGGGUCGAGGCAGAAGGGCGAUAUAGAAA [Reteriusge] | 15.8 | 81.2
AAGAGAAGAACUGAGGAUAUCAGGGAUGGUACAUGAGGAUCACCCAUGUUGGCAAGCGAAGAAACUGAGAAGGCAGAGAAGAAGAA [JR_SameState2_Sub6] | 29.4 | 34.3
AAGAGACAUGAGGAUCACCCAUGUAGGAUUAUGGGAGGAUAUACAAAGACGAGAGUCAGAGUAGAAGGCCUAGGAU [salish99-ss1-130(!)] | 21.5 | 59.9
AAGAUACAUGAGGAUCACCCAUGUCGAGAGAGACGAGGAUAUCUGAAUCGAUUAGAUUACGGAGAAGGCGUGAAAA [LROPPY Same State 1 - v07_deltaG=1.9] | 19.4 | 34.3
AAGAUACAUGAGGAUCACCCAUGUUUUGGUGGGUCAGGAUAUAAAAAGAAUGAGAGAAAGUUAGAAGGGACAAAGA [JR_SS001_Sub005] | 201 | 309
AAGCAACAUGAGGAUCACCCAUGUAGCAGGGUCAGAGGAUAUUUGAUCUUGGCAAGGGUUAAAGAAGGUUGAUAAA [Rianqu] | 264 | 140
AAGUCACAUGAGGAUCACCCAUGUCGUAAACGAUGAGGAUAUAGGAACGAAAGAAAAAAACUAGAAGGUAUAACAA [SameState1-03] | 28.8 | 26.7
AAUAAACAUGAGGAUCACCCAUGUAAAUGGGCGAUAGGAUAUGCGAAAAUAAAGAAAGAAGCAGAAGGAUCGAAGA [Ex5 sub 3] | 224 | 51.9
AAUAAACAUGAGGAUCACCCAUGUAAAUGGGUACAAGGAUAUGCGAAAAGAAACAAAGAAGCAGAAGGUGUAAAGA [Ex5 sub 2] | 347 | 432
AAUAAACAUGAGGAUCACCCAUGUAGAAACAUGGGAGGAUAUACAAAGACGAAAGUCAAAGUAGAAGGCCUAAAAA [Mat - Same State 1 - Mod - D168] | 150 | 329
AAUAAACAUGAGGAUCACCCAUGUAGAAACAUGGGAGGAUAUACAAAGACGAAAGUCAAAGUAGAAGGCCUAAUAA [Mat - Same State 1 - Mod - D167] | 92.7 | 42.4
AAUAAACAUGAGGAUCACCCAUGUAGAAAUAUGGGAGGAUAUACAAAGACGAAAGUCAAAGUAGAAGGCCUAAUAU [Mat - Same State 1 - Mod - D154] | 23.2 | 64.7
AAUAAUUAUAUCGAGGAUAUCGGUAAUAAGACAUGAGGAUCACCCAUGUAAUAAGGUUAAAUAAACGAGAAGGCGAAGGGUGAAA [JR_SS002_Sub006] | 80.9 | 49.2
AAUACACAUGAGGAUCACCCAUGUAGAAAGAAGGCAGGAUAUCAGAUCCACAUGUGAUAAUGAGAAGGGCCAAUAU [SS 1 Tesla 10] | 21.9 | 171
AAUAUAUUAAGUGAGGAUAUCAAAGAAAAAACAUGAGGAUCACCCAUGUGGGAAACCUGGUCGGGUGAGAAGGCACUUAAUAUAU [Samwise Clockwise 28 - Jieux - Same State 2] | 31.3 | 314
AAUAUAUUAAGUGAGGAUAUCGAGGAAAAAACAUGAGGAUCACCCAUGUGGGAAACAUGGUAGGGUGAGAAGGCACUUAAUAUAU [Samwise Clockwise 24 - Jieux - Same State 2] | 132 | 572
AAUAUAUUAUCUGAGGAUAUCAUAGGAAAAACAUGAGGAUCACCCAUGUGGGAAACCUGGUCGGGUGAGAAGGUGGAUAAUAUAU [Samwise Clockwise 33 - Jieux - Same State 2] | 58.7 | 341
AAUAUAUUAUUUAAGGAUAUCAUAGGAAACACAUGAGGAUCACCCAUGUGGGAAACUUGGUCGGGUGAGAAGGUGGAUAAUAUAU [Samwise Clockwise 36 - Jieux - Same State 2] | 17.4 | 24.6
AAUCCAAAUAGUUAGGAUAUGGGAAUAAAAACAUGAGGAUCACCCAUGUAAUUGAAACAAGUUAACCAGAAGGGACAGGGUGAAA [JR_SS002_Sub210] | 67.5 | 16.6
